For test [1], the target named is T1, human coagulation factor XI (human, UniProt P03951 19-625).
T1 construct: Bought protein; also called FXI; fXI
As to the kind of experiment: ELISA on coated human FXI. As for the experimental part: (§1) A standard ELISA format was used for analyzing the binding affinity of antibodies of this invention to FXI. Human FXI was obtained from Haematologic Technologies Inc. (human FXI; Cat. No. HCXI-0150), baboon FXI was generated as described below. These antigens were coated to black 384 well Maxisorp microtitter plates (Nunc; Cat. No: 460518), diluted to a concentration of 1 μg/ml in 1× Coating Buffer (Candor Bioscience; Cat. No. 121125). Plates were incubated overnight at 4° C. After ovemight incubation, plates were washed 2× with 50 μl/well using Phosphate Buffered Saline (PBS, SigmaAldrich, Cat. No. D8662)+0.05% Tween 20 (SigmaAldrich, Cat. No. P9416). Following this, 50 μl/well of blocking buffer (Smart Block; Candor Bioscience; Cat. No. 113500) was added and the plates incubated for 1 hour at room temperature. Afterwards, plates were washed for 3× using 50 μl/well of a PBS+0.05% Tween 20 buffer. Antibodies of this invention were added at different concentrations in a final volume of 30 μl/well. Plates were incubated for 1 hour at room temperature. Following this incubation step, plates were washed for 3× using 50 μl/well of a PBS+0.05% Tween 20 buffer. For the detection of bound candidate antibodies, the anti-h-Fc-POD antibody (Sigma; Cat. No. A0170) was diluted by the factor of 1:10000 in 10% Blocking Buffer. […]
(In general: An ELISA detects its analyte on a solid surface through an enzyme-linked reagent.)

The target in test [2] is T1, human coagulation factor XI. As to the kind of experiment: ELISA on coated human FXI, anti-h-Fc-POD detection. As for the experimental part:
as §1

The target is the same in test [3]. Put plainly: competitive ELISA on coated FXI, competitor biotinylated 1A6.

B1: humanized and germlined anti-FXI antibody TPP-3290 (antibody, human IgG1, kappa, V domains shown)
VH: EVTLRESGPALVKPTQTLTLTCTFSGFSLSTSGMGVSWIRQPPGKALEWLAHIDWDDDKYYSTSLKSRLTISKDTSKNQVVLTMTNMDPVDTATYYCARIRSSVYAHYYGMDYWGQGTTVTVSS
VL: DIVMTQSPDSLAVSLGERATISCKASQSVLYSGDNYLNWYQQKPGQPPKLLIYAASTLESGIPDRFSGSGSGTDFTLTISSLQAEDVAVYYCQQYNGTPWTFGGGTKVEIKR
notes: IgG expressed in HEK293-6E cells; also called TTP3290
As to B1, the binding result in test [1] is listed as “binds”.

B2: humanized and germlined anti-FXI antibody TPP-3238 (antibody, human IgG1, kappa, V domains shown)
VH: EVTLRESGPALVKPTQTLTLTCTFSGFSLSTSGMGVSWIRQPPGKALEWLAHIDWDDDKYYSTSLKSRLTISKDTSKNQVVLTMTNMDPVDTATYYCARIRSSVYYYYYGMDVWGQGTTVTVSS
VL: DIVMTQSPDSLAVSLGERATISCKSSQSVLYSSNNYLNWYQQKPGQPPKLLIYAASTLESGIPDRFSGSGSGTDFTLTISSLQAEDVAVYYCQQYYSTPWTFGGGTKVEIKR
notes: IgG expressed in HEK293-6E cells
For B2, the binding result in test [2] is recorded as “binds”.

B3: humanized and germlined anti-FXI antibody TPP-3583 (antibody, human IgG1, kappa, V domains shown)
VH: EVTLRESGPALVKPTQTLTLTCTFSGFSLSTSGMGVGWIRQPPGKALEWLAHIDWDDDKYYSPSLKSRLTISKDTSKNQVVLTMTNMDPVDTATYYCARIRSSVYAHYYGMDYWGQGTTVTVSS
VL: DIVMTQSPDSLAVSLGERATISCKASQSVLYSGDNYLNWYQQKPGQPPKLLIYAASTLESGIPDRFSGSGSGTDFTLTISSLQAEDVAVYYCQQYNGDPWTFGGGTKVEIKR
notes: also called TTP-3583
B3: in test [3], the binding result is given as “binds”.

(Values after patent US20190225705A1 (Bayer, published 2019).)
